Source: patent publication US20160215040A1 (Regeneron, published 2016)

How the values were obtained:
[1] = biological target: T1, Ebola virus GP, Sudan strain, on VLPs (Ebola virus, Sudan strain, UniProt Q7T9D9 33-676); assay: MSD, VLPs coated
T1 construct: also called Sudan NC_006432
T1 sequence: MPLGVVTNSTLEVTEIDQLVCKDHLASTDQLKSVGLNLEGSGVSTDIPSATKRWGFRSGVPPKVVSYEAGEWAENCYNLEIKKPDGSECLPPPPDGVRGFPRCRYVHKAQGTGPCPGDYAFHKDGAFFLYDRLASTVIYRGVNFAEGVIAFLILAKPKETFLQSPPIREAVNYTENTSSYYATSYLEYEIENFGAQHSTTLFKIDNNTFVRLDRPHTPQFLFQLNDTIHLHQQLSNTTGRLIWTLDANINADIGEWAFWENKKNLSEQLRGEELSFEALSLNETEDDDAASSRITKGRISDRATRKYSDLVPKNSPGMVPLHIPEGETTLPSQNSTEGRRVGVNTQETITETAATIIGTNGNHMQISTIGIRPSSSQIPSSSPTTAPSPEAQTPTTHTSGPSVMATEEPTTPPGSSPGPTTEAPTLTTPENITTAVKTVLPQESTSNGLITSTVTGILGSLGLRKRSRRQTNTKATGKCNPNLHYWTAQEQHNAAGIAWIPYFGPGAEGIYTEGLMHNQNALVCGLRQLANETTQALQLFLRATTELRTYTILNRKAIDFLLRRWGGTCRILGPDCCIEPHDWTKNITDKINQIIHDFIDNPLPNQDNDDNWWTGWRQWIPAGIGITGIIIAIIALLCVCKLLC

[2] = biological target: T2, Ebola virus GP with a C-terminal polyhistidine tag (Sino Biologicals, Catalog #40442-V08B1) (Ebola virus, UniProt P87666 33-650); assay: SPR 25C, mAb captured
T2 construct: also called EbolaGP.his; Ebola virus GP.his

[3] = biological target: T2, Ebola virus GP with a C-terminal …; assay: SPR 37C, mAb captured
[4] = biological target: T2, Ebola virus GP with a C-terminal …; assay: SPR 37C, mAb captured, pH chase
[5] = biological target: T3, Ebola virus GP, Cote d'Ivoire strain, on VLPs (Ebola virus, Cote d'Ivoire strain, UniProt Q66810 33-676); assay: MSD, VLPs coated
T3 construct: also called Cote d'Ivoire FJ217162; Ivory Coast
T3 sequence: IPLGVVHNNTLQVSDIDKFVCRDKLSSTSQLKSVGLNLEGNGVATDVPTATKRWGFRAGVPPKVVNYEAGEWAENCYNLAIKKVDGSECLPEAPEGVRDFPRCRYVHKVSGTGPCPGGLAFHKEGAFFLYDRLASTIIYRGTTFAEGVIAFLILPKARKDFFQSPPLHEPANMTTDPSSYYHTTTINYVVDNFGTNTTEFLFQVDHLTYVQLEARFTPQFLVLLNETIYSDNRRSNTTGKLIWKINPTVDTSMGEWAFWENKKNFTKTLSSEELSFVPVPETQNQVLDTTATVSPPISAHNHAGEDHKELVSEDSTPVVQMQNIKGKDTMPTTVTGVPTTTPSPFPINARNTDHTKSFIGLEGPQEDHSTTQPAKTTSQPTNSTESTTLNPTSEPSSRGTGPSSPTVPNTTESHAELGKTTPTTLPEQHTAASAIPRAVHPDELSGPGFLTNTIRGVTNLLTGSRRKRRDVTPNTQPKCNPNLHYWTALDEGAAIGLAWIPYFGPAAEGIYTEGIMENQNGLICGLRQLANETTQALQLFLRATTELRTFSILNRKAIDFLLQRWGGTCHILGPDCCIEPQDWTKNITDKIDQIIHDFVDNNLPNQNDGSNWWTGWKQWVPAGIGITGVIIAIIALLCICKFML

[6] = biological target: T4, hCNTFR.mmh (ciliary neurotrophic factor receptor.mmh) (human (printed as hCNTFR), UniProt P26992 23-342); assay: BLI, mAb captured, 25C
T4 construct: also called negative control protein; not shown: mmh (myc-myc-hexahistidine) tag
T4 sequence: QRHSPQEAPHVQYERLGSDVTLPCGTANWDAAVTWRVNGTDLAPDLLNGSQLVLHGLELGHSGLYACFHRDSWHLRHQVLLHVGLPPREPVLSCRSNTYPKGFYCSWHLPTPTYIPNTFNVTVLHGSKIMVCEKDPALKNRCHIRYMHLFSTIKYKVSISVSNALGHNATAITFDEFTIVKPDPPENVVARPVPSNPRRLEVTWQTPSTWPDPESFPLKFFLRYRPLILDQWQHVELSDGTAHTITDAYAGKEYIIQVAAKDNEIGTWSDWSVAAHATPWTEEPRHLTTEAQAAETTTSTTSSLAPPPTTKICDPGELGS

Row | Binder | binding result [1] | Kd [2] [nM] | koff [2] [s⁻¹] | kon [2] [M⁻¹ s⁻¹] | t½ [2] [min] | Kd [3] [nM] | koff [3] [s⁻¹] | kon [3] [M⁻¹ s⁻¹] | t½ [3] [min] | t½ ratio pH 7.4/pH 5.0 [4] | t½ ratio pH 7.4/pH 6.0 [4] | binding result [5] | binding result [6]
1 | H2aM17356N (antibody, V domains shown, also called HCAF08C07-09) VH: EVQLVESGGGLVQPGGSLRLSCAASGFTFSSYEMNWVRQAPGKGLEWVSYIGSSGRATYYADSVKGRFTISRDNAKNSLYLQMNSLRAEDTAVYYCARPSSIAALLRNQYHFGMDVWGQGTTVTVSS VL: not shown | no binding | 4.4 | 9.57e-05 | 21800 | 121 | 34.4 | 0.00025 | 7260 | 46.2 | 0.9 | 0.9 |  | 
2 | H1H17360N (antibody, V domains shown) VH: EVQLVESGGGLVQPGGSLRLSCAASGFTFSSYEMNWVRQAPGKGLEWVSYISSSGSTKYYADSVKGRFTISRDNAKNSLYLQMNSLRAEDTAVYYCARPSSIPALLRNQYHYGMDVWGQGTTVTVSS VL: not shown | no binding |  |  |  |  |  |  |  |  |  |  | no binding | no binding (tested: below 0.10 nm at 300 nM)
3 | H1H17356N (antibody, V domains shown) VH: EVQLVESGGGLVQPGGSLRLSCAASGFTFSSYEMNWVRQAPGKGLEWVSYIGSSGRATYYADSVKGRFTISRDNAKNSLYLQMNSLRAEDTAVYYCARPSSIAALLRNQYHFGMDVWGQGTTVTVSS VL: not shown |  |  |  |  |  |  |  |  |  |  |  |  | no binding (tested: below 0.10 nm at 300 nM)
4 | H1H17358N2 (antibody, V domains shown) VH: EVQLVESGGGLVQPGGSLRLSCAASGFTFSTYEMNWVRQAPGKGLEWVSYSSSSGRTIYYADSVKGRFTISRDNAKNSLFLQMNSLRAEDTAVYYCARPSSIETLLRNQYHYGVDVWGQGTTVTVSS VL: not shown | no binding |  |  |  |  |  |  |  |  |  |  | no binding | no binding (tested: below 0.10 nm at 300 nM)
5 | H1M17357N (antibody, V domains shown, also called HCAF09D11-13) VH: QVQLVQSGAEVKKPGASVKVSCKASGYTFTSYYMHWVRQAPGQGLEWMGIINPSGGSTSYAQKFQGRVTMTRDTSTSTVYMELSSLRSEDTAVYYCAREIGEAGEVFNYWGQGTLVTVSS VL: DIQMTQSPSSLSASVGDRVTITCRASQSISRYLNWYQHKPGKAPKVLIYAASILQSGVPSRFSGSGSGTDFTLTISSLQPEDFATYYCQQSYSTPPITFGQGTRLEIK | no binding |  |  |  |  | 78.1 | 0.00184 | 23500 | 6.3 | 0.5 | 0.8 | no binding | no binding (tested: below 0.10 nm at 300 nM)
6 | H1H17162P (antibody, V domains shown) VH: EVQLVESGGGLVQPGGSLRLSCAASEFTFSSYAMSWVRQAPGKGLEWVSAISGSSGSTYYADSVKGRFTISRDNSKKTLYLQMNSLRVEDTAVYYCAKGGYPHSFDIWGHGTMVTVSS VL: DIQMTQSPSSLSASVGDRVTITCRASQSISSFLNWYQQKPGKAPKLLIYAASSLQSGVPSRFSGSGSGTDFTLTISSLQPEDFATYYCQQSYSSITFGQGTRLEIK |  | ≤ 0.46 | ≤ 1e-05 | 21800 | ≥ 1160 | 0.288 | ≤ 1e-05 | 34700 | ≥ 1160 | 0.3 | 0.3 | no binding | no binding (tested: below 0.10 nm at 300 nM)
7 | H1H17161P (antibody, V domains shown, also called REGN H1H17161P) VH: EVQLVESGGGLVQPGGSLRLSCAASGFTSSSYAMNWVRQAPGKGLEWVSTISGMGGSTYYADSVKGRFTISRDNSKNTLYLQMNSLRAEDTAVYYCAKRGYPHSFDIWGQGTMVTVSS VL: not shown |  | ≤ 0.189 | ≤ 1e-05 | 52900 | ≥ 1160 | 0.228 | ≤ 1e-05 | 43900 | ≥ 1160 | 0.2 | 0.2 | no binding | 
8 | H2aM17359N (antibody, V domains shown, also called HCAF12C06-26) VH: EVQLVESGGGLAQPGGSLRLSCAASGFTFSSHEMNWVRQAPGKGLEWVSYISRSGRIINYADSVKGRFTISRDNAKNSLYLQMNSLRAEDTAVYYCARERGSYYDILTGSQDYGMDVWGQGTTVTVSS VL: not shown | no binding | 50.9 | 0.000195 | 3820 | 59.4 | 22.9 | 0.000352 | 15400 | 32.8 | 0.7 | 0.8 | no binding | 
9 | H1H17359N (antibody, V domains shown) VH: EVQLVESGGGLAQPGGSLRLSCAASGFTFSSHEMNWVRQAPGKGLEWVSYISRSGRIINYADSVKGRFTISRDNAKNSLYLQMNSLRAEDTAVYYCARERGSYYDILTGSQDYGMDVWGQGTTVTVSS VL: not shown |  |  |  |  |  |  |  |  |  |  |  |  | no binding (tested: below 0.10 nm at 300 nM)
10 | H1H17134P (antibody, V domains shown) VH: QLQLQESGPGLVKPSETLSLTCTVSGGSISSSSYYWGWIRQPPGKGLEWIGSIYYDGDTYYNPSLKSRVTISVDTSKNQFSLRLSSVTAADTAVYYCARQFDYWGQGTLVTVSS VL: not shown | no binding | 12.3 | 0.000941 | 76500 | 12.3 | 6.7 | 0.000469 | 69900 | 24.6 | 0.6 | 0.6 | no binding | 
11 | H1H17151P (antibody, V domains shown) VH: EVQLVESGGGLVQPGGSLRLSCAASGFTFSSYAMNWVRQAPGKGLEWVSVISGSGGWRNYADSVKGRITISRDNSKNTLYLQMNNLRAEDTAVYYCAKDRGATFGVVILGPPYYGMDVWGQGTTVTVSS VL: DIQMTQSPSSLSASVRDRVTITCRASQSISTYLNWYQQKPGKAPKLLIYAASSLQSGVPSRFSGSGSGTGFTLTISSLQPEDFATYYCQQSYSIPYTFGQGTKLEIK | no binding | 7.49 | 9.44e-05 | 12600 | 122 | 17 | 0.000383 | 22600 | 30.2 | 0.01 | 0.03 | no binding | 
12 | H1H17142P (antibody, V domains shown) VH: EVQLVESGGGLVQPGGSLRLSCAASGFTFSSYAMTWVRQAPGKGLEWVSSISGSGTSTYYADSVKGRFTISRDNSKNTLYLQMNSLRAEDTALYYCSRDIYTWNFLSLIGGMDVWGQGTTVTVSS VL: DIQMTQSPSSLSASVGDRVTITCRASQGIRIDLGWYQQKPGKAPNRLIYAASSLQGGVPSRFSGSGSGTEFTLTISSLQPEDFATYYCLQQNSYPWTFGQGTKVEIK | no binding | 1.41 | 2.81e-05 | 20000 | 411 | 6.68 | 0.000174 | 26000 | 66.6 | 0.5 | 0.5 |  | no binding (tested: below 0.10 nm at 300 nM)
